# Experimental data published in patent US20170165339A1.
# Target: HLA-A*24 (human)
# Test: UV peptide-exchange ELISA, yield grade
row,Binder,peptide exchange yield
1,RYAEEVGIF [… (SEQ ID NO: 199)],50 to 75%
2,IYATEAHVF [… (SEQ ID NO: 201)],50 to 75%
3,YFIDSTNLKTHF [… (SEQ ID NO: 269)],50 to 75%
4,TYKDEGNDYF [… (SEQ ID NO: 209)],50 to 75%
5,QYLGQIQHI [… (SEQ ID NO: 268)],50 to 75%
6,AYVVFVSTL [… (SEQ ID NO: 207)],20 to 49%
7,VYWDSAGAAHF [… (SEQ ID NO: 202)],> 75%
8,TYELRYFQI [… (SEQ ID NO: 204)],> 75%
9,YYKSTSSAF [… (SEQ ID NO: 218)],50 to 75%
10,TFSVSSHLF [… (SEQ ID NO: 222)],50 to 75%
11,YYGPSLFLL [… (SEQ ID NO: 200)],50 to 75%

# Second part, the binder after the results:
row,peptide exchange yield,Binder
1,20 to 49%,PYRLIFEKF [… (SEQ ID NO: 281)]
2,50 to 75%,LYITEPKTI [… (SEQ ID NO: 287)]
3,50 to 75%,HYPPVQVLF [… (SEQ ID NO: 285)]
4,> 75%,VYQGHTALL [… (SEQ ID NO: 277)]
5,50 to 75%,NYYEVHKELF [… (SEQ ID NO: 270)]
